Laboratory results taken from paper PMC12522135 (2025).

B1: HEX-D3-ASA (designed binder)
chain: DLGKKLLEAARAGQDDEVRELLKAGADVNAKDYFSHTPLHLAARNGHLKIVEVLLKAGADVNAKDFAGKTPLHLAANEGHLEIVEVLLKAGADVNAQDIFGKTPADIAADAGHEDIAEVLQKAAGGGSGGGSGGGSGGGSGELKAIAQELKAIAKELKAIAWELKAIAQGAGGGGSGGGSGGGSGGGSDLGKKLLQAARAGQLDEVRELLKAGADVNAKDQEGITPLHVAAHQGHLEIVEVLLKAGADVNAKDVWGRTPLHLAAWRGHLEIVEVLLKAGADVNAKDHAGATPLHAAALSGHLEIVEVLLKAGADVNAQDKSGKTPADLAARAGHQDIAEVLQKAA
B2: Bilayer HEX-D3-ASA (designed binder)
chain: DLGKKLLQAARAGQLDEVRELLKAGADVNAKDQEGITPLHVAAHQGHLEIVEVLLKAGADVNAKDVWGRTPLHLAAWRGHLEIVEVLLKAGADVNAKDHAGATPLHAAALSGHLEIVEVLLKAGADVNAQDKSGKTPADLAARAGHQDIAEVLQKAAGGGSGGGSGGGSGGGSDLGKKLLEAARAGQDDEVRELLKAGADVNAKDYFSHTPLHLAARNGHLKIVEVLLKAGADVNAKDFAGKTPLHLAANEGHLEIVEVLLKAGADVNAQDIFGKTPADIAADAGHEDIAEVLQKAAGGGSGGGSGGGSGGGSGELKAIAQELKAIAKELKAIAWELKAIAQGAGGGGSGGGSGGGSGGGSDLGKKLLQAARAGQLDEVRELLKAGADVNAKDQEGITPLHVAAHQGHLEIVEVLLKAGADVNAKDVWGRTPLHLAAWRGHLEIVEVLLKAGADVNAKDHAGATPLHAAALSGHLEIVEVLLKAGADVNAQDKSGKTPADLAARAGHQDIAEVLQKAAGGGSGGGSGGGSGGGSDLGKKLLQAARAGQLDEVRELLKAGADVNAKDQEGITPLHVAAHQGHLEIVEVLLKAGADVNAKDVWGRTPLHLAAWRGHLEIVEVLLKAGADVNAKDHAGATPLHAAALSGHLEIVEVLLKAGADVNAQDKSGKTPADLAARAGHQDIAEVLQKAA

How the values were obtained:
mouse serum albumin = mouse serum albumin (mouse, UniProt P07724 25-608); experiment: ELISA
mouse serum albumin, sequence (P07724 25-608): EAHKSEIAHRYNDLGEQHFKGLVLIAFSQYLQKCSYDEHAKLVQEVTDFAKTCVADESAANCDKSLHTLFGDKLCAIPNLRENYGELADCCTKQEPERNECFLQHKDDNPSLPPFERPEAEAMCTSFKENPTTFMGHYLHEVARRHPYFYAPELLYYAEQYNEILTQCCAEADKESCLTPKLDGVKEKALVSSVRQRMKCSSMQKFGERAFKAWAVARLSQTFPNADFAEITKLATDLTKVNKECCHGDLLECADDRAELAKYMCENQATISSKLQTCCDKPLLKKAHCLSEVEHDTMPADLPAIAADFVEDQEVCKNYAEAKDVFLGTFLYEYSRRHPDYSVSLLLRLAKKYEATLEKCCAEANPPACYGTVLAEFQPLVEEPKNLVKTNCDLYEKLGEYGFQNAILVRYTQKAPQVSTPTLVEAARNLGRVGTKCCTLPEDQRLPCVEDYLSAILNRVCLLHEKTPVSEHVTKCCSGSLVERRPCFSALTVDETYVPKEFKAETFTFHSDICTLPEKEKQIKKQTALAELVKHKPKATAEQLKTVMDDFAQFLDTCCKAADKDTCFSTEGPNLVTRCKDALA

human serum albumin = human serum albumin (human, UniProt P02768 25-609); experiment: ELISA

| Binder | Kd (mouse serum albumin) | Kd (human serum albumin) |
| --- | --- | --- |
| B1 | 24.4 nM | 2.82 nM |
| B2 | 124 nM | 7.9 nM |
